Data on one molecule can be found in patent US20120027763A1 (TRANSGENE BIOTEK, published 2012).

The target of this assay is T1, TNFRSF17-epag.
T1 construct: also called TNFRS17-epag
T1 peptide: KSRTGDEIILPRGLC
Description: screening of ascites mAbs by specific Ag binding activity, after immunization with SEQ ID NO:2.

B1: TBL-CLN1 (antibody, V domains shown)
VH: EVKLVESGGGLVKPGGSLKLSCAASGITFSTYAMSWVRQTPEKRLEWVASITTGGNVYFPDSVKGRFTISRDNARNILYLQMSSLRSEDTAMYYCAGGITATRGTFAYWGQGTTLTVSS
VL: DVLMTQTPLSLPVSLGDQASISCRSSQSIGHSNGITYLEWYLQKPGQSPKLLIYKVSNRFSGVPDRFSGSGSGTDFTLKISRVEAEDLGVYYCFEGSHVPLTFGAGTKLELKR
notes: also called TBL-CLNI
For B1, the binding result is recorded as “binds”.
